T1: MMRN2 overexpressed in HEK293T cells (human, UniProt Q9H8L6 23-949)
T1 construct: Used as cell lysate; also called full-length human MMRN2 with a His tag; hMMRN2; not shown: His tag (vector pHL-Avitag3)
T1 sequence: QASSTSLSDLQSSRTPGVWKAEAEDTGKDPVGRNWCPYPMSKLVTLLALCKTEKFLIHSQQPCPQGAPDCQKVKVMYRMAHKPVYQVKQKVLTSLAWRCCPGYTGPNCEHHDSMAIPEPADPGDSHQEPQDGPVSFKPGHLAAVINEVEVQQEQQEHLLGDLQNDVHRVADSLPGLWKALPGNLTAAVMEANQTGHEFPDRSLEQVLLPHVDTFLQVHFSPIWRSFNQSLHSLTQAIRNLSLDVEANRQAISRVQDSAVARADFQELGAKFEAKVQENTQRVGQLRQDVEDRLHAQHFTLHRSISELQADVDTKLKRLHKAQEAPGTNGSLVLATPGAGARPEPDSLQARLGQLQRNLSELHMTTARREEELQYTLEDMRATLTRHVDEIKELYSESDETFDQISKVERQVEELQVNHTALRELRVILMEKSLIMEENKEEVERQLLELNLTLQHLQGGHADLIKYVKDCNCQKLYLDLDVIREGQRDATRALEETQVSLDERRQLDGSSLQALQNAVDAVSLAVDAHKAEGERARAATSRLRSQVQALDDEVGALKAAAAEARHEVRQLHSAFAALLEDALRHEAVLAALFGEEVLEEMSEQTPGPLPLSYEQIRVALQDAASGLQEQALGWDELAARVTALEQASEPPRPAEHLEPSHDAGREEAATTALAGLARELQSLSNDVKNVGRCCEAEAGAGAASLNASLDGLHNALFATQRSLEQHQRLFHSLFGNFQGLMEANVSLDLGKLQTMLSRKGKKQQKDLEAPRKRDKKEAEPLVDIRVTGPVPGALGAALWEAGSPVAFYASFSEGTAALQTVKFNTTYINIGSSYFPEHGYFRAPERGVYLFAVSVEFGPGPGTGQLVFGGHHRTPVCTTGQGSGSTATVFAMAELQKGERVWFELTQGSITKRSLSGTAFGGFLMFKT

T2: murine CLEC14A-Fc (mouse, UniProt Q8VCP9 22-386, limits assumed)
T2 construct: Murine CLEC14A protein with a human Fc tag, made in HEK293T cells; also called CM; mCLEC14A-Fc; not shown: human Fc tag
T2 sequence (looked up): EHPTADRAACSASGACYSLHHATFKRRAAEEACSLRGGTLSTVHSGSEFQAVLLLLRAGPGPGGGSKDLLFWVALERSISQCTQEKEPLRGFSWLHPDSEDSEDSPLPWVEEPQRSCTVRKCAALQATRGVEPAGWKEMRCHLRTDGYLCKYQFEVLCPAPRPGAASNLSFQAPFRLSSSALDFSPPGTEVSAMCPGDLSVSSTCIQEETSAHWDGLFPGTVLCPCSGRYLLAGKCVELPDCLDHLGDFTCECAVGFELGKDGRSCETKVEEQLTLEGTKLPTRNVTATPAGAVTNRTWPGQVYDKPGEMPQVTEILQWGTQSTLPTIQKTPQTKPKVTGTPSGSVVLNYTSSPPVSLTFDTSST

T3: human CLEC14A-ECD-Fc (human, UniProt Q86T13 22-396)
T3 construct: also called CLEC14A-Fc; hCLEC14A-Fc; not shown: human Fc tag from the pcDNA3-Fc plasmid
T3 sequence: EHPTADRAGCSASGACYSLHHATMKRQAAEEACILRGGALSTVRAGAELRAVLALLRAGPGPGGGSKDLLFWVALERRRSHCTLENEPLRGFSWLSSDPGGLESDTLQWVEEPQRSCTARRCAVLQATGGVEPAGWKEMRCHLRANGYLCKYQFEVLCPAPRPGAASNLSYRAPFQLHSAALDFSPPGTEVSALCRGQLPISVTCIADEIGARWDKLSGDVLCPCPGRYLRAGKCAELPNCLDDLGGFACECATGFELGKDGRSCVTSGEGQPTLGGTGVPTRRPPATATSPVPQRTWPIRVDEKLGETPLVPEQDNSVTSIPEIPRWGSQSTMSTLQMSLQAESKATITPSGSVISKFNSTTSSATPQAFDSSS

T4: CLEC14A wild type with a C terminal GFP tag (human, UniProt Q86T13 22-490)
T4 construct: Expressed in HEK293T cells; GFP-positive cells gated; also called WT CLEC14A; not shown: C-terminal GFP tag
T4 sequence: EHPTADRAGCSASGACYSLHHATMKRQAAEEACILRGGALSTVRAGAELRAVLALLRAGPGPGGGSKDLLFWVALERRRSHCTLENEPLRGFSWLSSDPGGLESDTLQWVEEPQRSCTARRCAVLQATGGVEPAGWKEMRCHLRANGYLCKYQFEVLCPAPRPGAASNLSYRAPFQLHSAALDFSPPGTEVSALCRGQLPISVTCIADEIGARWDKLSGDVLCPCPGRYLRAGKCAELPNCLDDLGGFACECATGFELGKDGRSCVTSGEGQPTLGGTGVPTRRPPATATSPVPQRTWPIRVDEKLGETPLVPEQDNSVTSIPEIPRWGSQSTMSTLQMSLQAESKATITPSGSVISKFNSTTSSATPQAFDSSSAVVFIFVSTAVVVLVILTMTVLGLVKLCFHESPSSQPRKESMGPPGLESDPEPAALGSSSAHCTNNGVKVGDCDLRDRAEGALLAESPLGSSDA

T5: human CLEC14A, full length (human, UniProt Q86T13 22-490)
T5 construct: also called CLEC14A on HUVECs (endogenous); CHO cells expressing full length human CLEC14A
T5 sequence: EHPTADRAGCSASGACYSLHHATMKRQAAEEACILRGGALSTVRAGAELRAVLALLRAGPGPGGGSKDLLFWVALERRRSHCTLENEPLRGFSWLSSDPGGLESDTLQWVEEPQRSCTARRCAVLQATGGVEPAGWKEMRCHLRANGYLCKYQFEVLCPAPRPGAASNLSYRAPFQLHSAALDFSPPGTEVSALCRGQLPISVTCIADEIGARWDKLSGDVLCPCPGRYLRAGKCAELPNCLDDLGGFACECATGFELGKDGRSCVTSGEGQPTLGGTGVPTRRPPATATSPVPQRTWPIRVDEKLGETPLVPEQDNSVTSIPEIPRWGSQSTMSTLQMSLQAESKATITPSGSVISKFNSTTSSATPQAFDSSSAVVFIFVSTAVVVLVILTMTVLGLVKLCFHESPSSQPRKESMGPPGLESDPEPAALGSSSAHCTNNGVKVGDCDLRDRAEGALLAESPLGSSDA

B1: CLEC14A with regions 97-108 of CD141 (receptor)
chain: not shown
notes: also called this mutant

Key:
[1] = target: T1, MMRN2 overexpressed in HEK293T cells; assay: far Western blot of lysates of transfected HEK293T cells, probed with MMRN2 protein lysate
Text: HEK293T cells were mock transfected or transfected with pCS2 vectors containing CLEC14A wild type (WT) or constructs with each major domain deleted (Δ) with an N-terminal HA tag. Upon far western blotting with MMRN2 protein lysate, binding can be seen in all mutants except those missing the C-type lectin domain (CTLD) or the sushi domain. An anti-HA blot was included to show all mutant proteins were expressed.

[2] = target: T2, murine CLEC14A-Fc; assay: ELISA, hybridoma supernatant on absorbed antigen
[3] = target: T3, human CLEC14A-ECD-Fc; assay: pre-incubation of CLEC14A-ECD-Fc with antibody before MMRN2 pull-down
Experimental: Human CLEC14A-ECD-Fc was bound to protein A beads, blocked in 20% FCS and then incubated with each blocking condition. This was then added to lysates of HEK293T cells overexpressing full-length human MMRN2 with a His tag. Pre-incubating with CRT1, CRT4 and CRT5 decreased the levels of MMRN2 pulled down by CLEC14A-ECD-Fc.
To determine which CLEC14A monoclonal antibodies could inhibit the binding of MMRN2 to CLEC14A, CLEC14A-ECD-Fc was pre-incubated with increasing concentrations of mIgG1, or CR1-5, prior to incubation with lysates from HEK293T cells overexpressing MMRN2. Precipitates were then separated and probed for MMRN2 or CLEC14A-ECD-Fc. […] This confirms that antibodies C1, 4 and 5 bind CLEC14a on an epitope that is distinct from the one that C2 and 3 monoclonal antibodies bind and thus specifically block the MMRN2 interaction with CLEC14A.

[4] = target: T6, Chimera 5; assay: flow cytometry, HEK293T Chimera 5 GFP, GFP-positive cells gated (R1)
T6 construct: GFP fusion; also called CLEC14A with CTLD of CD141; CTLD of thrombomodulin, rest CLEC14A
T6 sequence (chain, as listed by the source mutant limits assumed): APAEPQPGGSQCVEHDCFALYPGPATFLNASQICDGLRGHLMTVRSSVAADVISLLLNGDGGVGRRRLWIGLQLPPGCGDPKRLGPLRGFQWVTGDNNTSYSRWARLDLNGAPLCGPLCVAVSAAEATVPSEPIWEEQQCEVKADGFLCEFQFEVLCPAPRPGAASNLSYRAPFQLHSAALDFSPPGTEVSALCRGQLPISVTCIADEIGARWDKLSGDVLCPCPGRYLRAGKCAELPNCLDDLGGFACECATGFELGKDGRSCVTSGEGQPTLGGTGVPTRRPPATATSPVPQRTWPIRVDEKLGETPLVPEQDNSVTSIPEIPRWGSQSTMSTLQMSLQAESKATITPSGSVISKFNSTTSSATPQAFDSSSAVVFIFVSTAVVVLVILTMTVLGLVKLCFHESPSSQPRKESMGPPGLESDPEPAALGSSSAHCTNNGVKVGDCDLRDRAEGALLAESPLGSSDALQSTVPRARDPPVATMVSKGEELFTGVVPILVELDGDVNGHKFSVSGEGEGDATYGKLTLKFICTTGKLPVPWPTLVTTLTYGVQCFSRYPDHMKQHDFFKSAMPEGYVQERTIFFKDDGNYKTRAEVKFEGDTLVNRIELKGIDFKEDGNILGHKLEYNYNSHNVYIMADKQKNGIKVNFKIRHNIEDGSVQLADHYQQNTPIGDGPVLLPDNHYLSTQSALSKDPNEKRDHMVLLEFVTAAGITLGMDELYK

[5] = target: B1; assay: flow cytometry, HEK293T 97-108 Chimera GFP, GFP-positive cells gated (R1)
[6] = target: T7, wild type thrombomodulin with GFP tag (UniProt P07204 19-575); assay: flow cytometry, HEK293T Thrombomodulin CD141 WT GFP, GFP-positive cells gated (R1)
T7 construct: whole, on cells; Expressed in HEK293T cells; also called WT CD141; CD141; not shown: C-terminal GFP tag
T7 sequence (P07204 19-575): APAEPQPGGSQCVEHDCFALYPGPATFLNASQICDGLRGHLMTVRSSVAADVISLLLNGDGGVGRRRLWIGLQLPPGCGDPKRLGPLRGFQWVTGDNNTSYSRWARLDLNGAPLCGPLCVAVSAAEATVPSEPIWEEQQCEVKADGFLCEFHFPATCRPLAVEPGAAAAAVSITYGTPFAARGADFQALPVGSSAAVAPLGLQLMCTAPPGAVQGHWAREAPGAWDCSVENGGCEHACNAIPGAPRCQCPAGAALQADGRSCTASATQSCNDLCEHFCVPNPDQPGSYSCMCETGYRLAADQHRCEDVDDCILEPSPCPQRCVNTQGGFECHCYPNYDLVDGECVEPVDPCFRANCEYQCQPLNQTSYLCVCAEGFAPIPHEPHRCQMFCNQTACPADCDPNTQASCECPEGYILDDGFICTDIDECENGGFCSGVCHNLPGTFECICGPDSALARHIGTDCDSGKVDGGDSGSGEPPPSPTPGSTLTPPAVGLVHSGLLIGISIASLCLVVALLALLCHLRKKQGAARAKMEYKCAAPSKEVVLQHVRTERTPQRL

[7] = target: T4, CLEC14A wild type with a C terminal GFP …; assay: flow cytometry, HEK293T CLEC14A WT GFP, GFP-positive cells gated (R1); filled histogram is the control (files named IgG)
[8] = target: T8, Chimera 6; assay: flow cytometry, HEK293T Chimera 6 GFP, GFP-positive cells gated (R1); filled histogram is the control (files named IgG)
T8 construct: GFP fusion; also called CLEC14A with SUSHI of CD141; Sushi of thrombomodulin

[9] = target: T1, MMRN2 overexpressed in HEK293T cells; assay: method for MMRN2 not described
[10] = target: T5, human CLEC14A, full length; assay: fluorescent imaging of HUVECs treated with the drug conjugate of CRT3, 0 and 90 minutes by the legend
Experimental: HUVECs were treated with CRT-3 ADC and fluorescent imaging was carried out to determine the localisation of CRT-3 after 0 and 90 minutes. Further, the cytotoxicity was measured using a Cell Titre Glo luminescent cell viability assay and the results are shown in FIG. 18B. As described above, 1 million Lewis lung carcinoma cells were injected subcutaneously into the right flank of 2 mice and allowed to grow to a visible size. 1 mg/kg of CRT-3-ADC or B12-ADC (control) was administered through tail vein injections.

binding result [1]	binding result [2]	binding result [3]	binding result [4]	binding result [5]	binding result [6]	binding result [7]	binding result [8]	binding result [9]	binding result [10]	Binder
binds										HA-CLEC14A (receptor, also called CLEC14A wild type (WT) with an N-terminal HA tag; not shown: N-terminal HA tag) EHPTADRAGCSASGACYSLHHATMKRQAAEEACILRGGALSTVRAGAELRAVLALLRAGPGPGGGSKDLLFWVALERRRSHCTLENEPLRGFSWLSSDPGGLESDTLQWVEEPQRSCTARRCAVLQATGGVEPAGWKEMRCHLRANGYLCKYQFEVLCPAPRPGAASNLSYRAPFQLHSAALDFSPPGTEVSALCRGQLPISVTCIADEIGARWDKLSGDVLCPCPGRYLRAGKCAELPNCLDDLGGFACECATGFELGKDGRSCVTSGEGQPTLGGTGVPTRRPPATATSPVPQRTWPIRVDEKLGETPLVPEQDNSVTSIPEIPRWGSQSTMSTLQMSLQAESKATITPSGSVISKFNSTTSSATPQAFDSSSAVVFIFVSTAVVVLVILTMTVLGLVKLCFHESPSSQPRKESMGPPGLESDPEPAALGSSSAHCTNNGVKVGDCDLRDRAEGALLAESPLGSSDA
	binds	binds	no binding	no binding	no binding	binds	binds			CRT1 (antibody, IgG1, V domains shown, also called C1; CR1) VH: EVQLQQSGAELMKPGASVKISCKATGYTFSSYWIEWVKQRPGHGLEWIGEILPGSGSTNYNEKFKGKATFTADTSSNTAYMQLSSLTSEDSAVYYCARGGDYDEEYYVMDYWGQGTSVTV VL: QIVLTQSPAIMSASPGEKVTMTCSASSSVSYMYWYQQKPGSSPRLLIYDTSNLASGVPVRFSGSGSGTSYSLTISRMEAEDAATYYCQQWSSYPLTFGAGTKLELKR
			no binding	no binding	no binding					CRT4 (antibody, IgG1, V domains shown, also called C4) VH: QVQLQQSGAELMKPGASVKISCKATGYTFSSYWIEWVNRRPGHGLEWIGEILPGSGSTNYNEKFKGKATFTADTSSNTAYMQLSSLTSEDSAVYYCARGGDYDEEYYLMDYWGQGTTLTVSS VL: QIVLTQSPAIMSASPGEKVTMTCSASSSVSYMYWYQQKPGSSPRLLIYDTSNLASGVPVRFSGSGSGTSYSLTISRMEAEDAATYYCQQWSSYPLTFGAGTKLEIKR
			no binding	no binding	no binding					CRT5 (antibody, IgG1, V domains shown, also called C5) VH: AEVQLQQSGAELMKPGASVKISCKATGYTFSSYWIEWVNQRPGHGLEWIGEILPGSGSTNYNEKFKGKATFTADTSSNTAYMQLSSLTSEDSAVYYCARGGDYDEEYYAMDYWGQGTSVTL VL: QIVLTQSPAIMSASPGEKVTMTCSASSSVSYMYWYQQKPGSSPRLLIYDTSNLASGVPVRFSGSGSGTSYSLTISRMEAEDGATYYCQQWSSYPLTFGAGTKLELKR
								no binding		B1
	binds	binds	no binding		no binding	binds	binds		binds	CRT3 (antibody, IgG1, V domains shown, The VL entry ends with AAA from the cloning site; also called C3) VH: EVQLQQSGTVLARPGASVKMSCKASGYTFTSYWMHWVKQRPGQGLEWIGAIYPGNSDTSYNQKFKGKAKLTAVTSTSTAYMELSSLTNEDSAVFYCTHYYGSDYAMDYWGQGTSVTV VL: QIVLTQSPAIMSASLGERVTMTCTASSSVSSSYLHWYQQKPGSSPKLWIYSTSNLASGVPARFSGSGSGTSYSLTISSMEAEDAATYYCHQYHRSPRTFGGGTKLEIKR

Source: patent US20190085081A1 (CANCER RESEARCH TECHNOLOGY, published 2019)
